Kd data for three sequences are collected here from publication PMC7658645.

Assay in all cases: dot blot (nitrocellulose filter binding)
Conditions in all cases: 5 mM Mg2+; Dot blot/aptamer blot: 20 mM Tris-HCl, 100 mM NaCl, 5 mM MgCl2, 0.1% BSA (pH not given), 50 nM aptamer in dot blot (membranes equilibrated at 4 C), blots 1 h …

Series [1] concerns MBP (maltose-binding protein tag).
The target in series [2] is GST (glutathione S-transferase tag) (UniProt P08515).
The target in series [3] is His-TrxA (His-tagged thioredoxin 1) (UniProt P0AA25).

The term Kd denotes the concentration at which binding is half-saturated. Higher therefore signals lower affinity. Sequence “ATACGACTCACTATTAGGGACCACATAAACATGCATCGCTCAATAACGGGATATTGTTGTGCTAGACTACTGACTACAA [M1]” yielded a Kd in series [1] of 86 nM. This lies in the double-digit nanomolar range.

For “ATACGACTCACTATTAGGGACAAAGCTGACAACCCTTTCATAATCTAACTACATTTATGTGCTAGACTACTGACTAC [G1]”, the Kd in series [2] was 59 nM.

On to “ATACGACTCACTATTAGGGATGTCCACCATATAGATCGATTTAAGTCCCTCGTTATTAATGCTAGACTACTGACTACAA [H1]”, for which the dissociation constant Kd in series [3] was found to be 173 nM.
